Data published in patent US20040018516A1.

Legend:
[1] = target: Factor VIIa/Tissue Factor (lipidated) complex (UniProt P08709); test: cell-based or functional assay
Factor Xa = Factor Xa (UniProt P00742); test: cell-based or functional assay
[2] = target: Ixolaris (recombinant, mature protein of 140 amino acids)

UniProt P08709, sequence (P08709 61-466 limits assumed, chain 1 of 2): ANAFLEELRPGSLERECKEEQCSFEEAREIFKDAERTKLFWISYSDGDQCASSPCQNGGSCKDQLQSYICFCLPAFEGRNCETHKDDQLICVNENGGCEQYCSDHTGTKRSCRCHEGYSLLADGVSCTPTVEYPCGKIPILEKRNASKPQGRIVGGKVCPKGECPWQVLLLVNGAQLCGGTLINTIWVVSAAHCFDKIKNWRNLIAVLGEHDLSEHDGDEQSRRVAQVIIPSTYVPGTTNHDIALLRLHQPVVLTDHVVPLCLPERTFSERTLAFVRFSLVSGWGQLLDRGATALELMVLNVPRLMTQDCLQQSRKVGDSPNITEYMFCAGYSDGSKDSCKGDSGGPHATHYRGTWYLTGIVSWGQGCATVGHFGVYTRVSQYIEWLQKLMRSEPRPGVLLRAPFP
UniProt P08709, sequence (P13726 33-295 limits assumed, chain 2 of 2, further chain): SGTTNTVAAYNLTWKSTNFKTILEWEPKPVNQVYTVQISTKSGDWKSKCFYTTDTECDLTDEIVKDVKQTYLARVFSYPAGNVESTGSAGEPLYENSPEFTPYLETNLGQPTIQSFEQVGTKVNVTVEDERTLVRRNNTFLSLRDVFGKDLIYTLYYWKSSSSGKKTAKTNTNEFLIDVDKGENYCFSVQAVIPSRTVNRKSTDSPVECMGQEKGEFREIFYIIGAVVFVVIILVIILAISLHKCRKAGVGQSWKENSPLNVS

For “Ixolaris (recombinant, mature protein of 140 amino acids) (from UniProt Q964Q0 27-165)”, the Residual activity (%) of VIIa/TF (6.4 pM)/S2288 (1 mM) with 32 nM Ixolaris [1] was 0%, the inhibition of Factor X (200 nM) activation after preincubation of Factor VIIa/TF (1 nM/0.2 pM) with 100 pM Ixolaris [1] was 65% and the ED50 of the increase of Factor Xa (125 pM) esterolytic activity on S2222 (Factor Xa) was 159 pM. It also gave an increase of amidolytic activity of Factor Xa (640 pM) by Ixolaris (400 pM) (Factor Xa) of 40%.

In the case of “Ixolaris/DEGR-Factor X complex (from UniProt P00742 41-488)”, the inhibition of Factor X (200 nM) activation after preincubation of Factor VIIa/TF with 100 pM Ixolaris/DEGR-Factor X [1] is reported as over 85%.

“full-length human TFPI (recombinant, 4900PC) (from UniProt P10646 29-304)” was tested, and the IC50 of inhibition of Factor VIIa/TF-induced Factor X activation, at 15 nM Factor X [1] was 0.61 nM, the IC50 of inhibition of Factor VIIa/TF-induced Factor X activation, at 75 nM Factor X [1] was 0.62 nM and the IC50 of inhibition of Factor VIIa/TF-induced Factor X activation, at 200 nM Factor X [1] was 0.625 nM.

B1: γ-carboxyglutamic acid domainless Factor Xa (des-Gla-Factor Xa) (protein)
chain: KDGDQCETSPCQNQGKCKDGLGEYTCTCLEGFEGKNCELFTRKLCSLDNGDCDQFCHEEQNSVVCSCARGYTLADNGKACIPTGPYPCGKQTLERIVGGQECKDGECPWQALLINEENEGFCGGTILSEFYILTAAHCLYQAKRFKVRVGDRNTEQEEGGEAVHEVEVVIKHNRFTKETYDFDIAVLRLKTPITFRMNVAPACLPERDWAESTLMTQKTGIVSGFGRTHEKGRQSTRLKMLEVPYVDRNSCKLSSSFIITQNMFCAGYDTKQEDACQGDSGGPHVTRFKDTYFVTGIVSWGEGCARKGKYGIYTKVTAFLKWIDRSMKTRGLPKAKSHAPEVITSSPLK
For B1, the “activity of 0.4 nM des-Gla-Factor Xa plus 1.6 nM Ixolaris (control without Ixolaris: 1.4±0.12 units of Vmax)” value [2] was 0.4 nM des-Gla-Factor Xa plus 1.6 nM Ixolaris: 2.78±0.1 units of Vmax and the “fold increase of des-Gla-Factor Xa proteolytic activity in the presence of 1.6 nM Ixolaris” value [2] was “proteolytic activity increased 1.98 fold in the presence of Ixolaris”.
